# Test results reported in the DeepSol protein solubility set.
# Assay: soluble on expression in E. coli; label from the status in PepcDB or PDB records
row,Sequence,soluble on expression in E. coli
1,MRRIGAITALSLPVLLSLLYSCGTGGSASKEEILSKKEHNPEPNIPLECYTDTGVVKLGKAIANPCYVCHTKALTPYENEVDDFDLQLVYDFPEEIKEMGNPWLNAIKPELTIGSVPMPSDEEIKTWIRQDNWSKAYAEKGKGELVYFPDIPPIYKYENGSYELINVDKEGFVRDPETGEYTGWRVFKWKPFPGFFPTNGRIDSTFIRLPEKFRKKNGEFDLNLYKKNLAILECAMKGVAPGETCSGTEVGDFIMPFRYEGDASDVEVVVYQYPPGTEFAHPLYYLDPENTLSFKSLRIKEMRYMKKLAYADTRTGTGEEEEEEGTFFWDKGRFFNDSGYWEMRAFIEDKNGYLRPQSPEESKFCIACHGGIGGTVDGTFTLWRKIPGEEGWKEQDYKNIKDYRYKAITCENLDSLEMGEEVKKALEAYCSKVGESPGEYTVYFALTAGGDHFRSNYEILQDISVDGKVDLELLYNPEKIKFIDNSGFIKPELFFPEPERAYGIDKQYYRIVKAQAFIYGRDVFEKAFGISSGGNSLEELDNLESTGVKESGIWNFVKNFLSSE,not soluble
2,SRVKKNVLDYNAWAEGTLKGIKQEKKAYKERHRLFFEGLSEAEKVEYATKMAHDAQIYDEPEFDPQELQSEYYRGLYAFDNRKNNVDSYK,soluble
3,MAHHHHHHMLWAIKHTDYPTMSTGLETLDLFLENVSKSEYAEVFFKAYMQRILVDVMVASMDSLHASGFQHHVRILQKLFNVSSMVPPDTPTIGKDVIRAYLLDSLTVIPTLTTTSILSFVDTCYESFTDDERFRTQFADFLIEVKVWGAEQENKMQEEDERRLREETIPGFSNLSMEIRRQTCSPPSDPGRCADGQGRGPASVRRFHCRRHRHPSKYTCTPLSLFPLKNPSADPAVRDVRPSYFVDCVGG,not soluble
4,VPWEDVFKSFDPNPLAAGTIAQVHRATLETGDRVVVKVQRPTARADIEQDLALFEMFAEKVGKRPALNQVINMEDVFKHLSTSLHRELDFRQEANNIERMRTVLADYDRLAVPSIHWDLS,not soluble
5,MGVYPPSEDSFLIIEYASCSGKAIEIGCGTGIVSICFLKRGCDIEAVDISDLAVECAKDNASRNGLTLKVYRSDLFSGVSGTYDTILFNAPYIPVEGEDASWSGGRNLEVVSRFLGQAREHLSASGQIYIVLSDLTDNEGMFRMMGYDYFIIKKISFEFEAIVLYKLTLKALEHHHHHH,not soluble
6,MSLTGVLGFYTLEEGPTLPSSFTSFANNTGQLSSTALFMFRISAANPTTIEKFGEFTDQDVRNLVAIAHRNNVKIMPVVHNLLYRPGGTTLAKNVVKTLVSDPRNRNAFALNLVNLIERYGFDGVNIDIEDVFIEDSDNLSLLYTEISEVLRPRGYFFSASVPSRVSDEPFNPFSDPFNYSVIGRAVDEFVVMLYNEFGWPGSPPGPAVTIGWMERVLRYTMSKMPRDKIMAAVSVFGFDFNLTTGRNTYVTYQSAINLARRYNSEIIFNEERQTPMFTYRDAQGNQHEVWFEDARSLRSKIQLAWELGIKGVALWRLGMEDPNIWPMLRNEVVVRKFEGHHHHHH,soluble
7,AEFFPEIPKVQFEGKESTNPLAFKFYDPEEIIDGKPLKDHLKFSVAFWHTFVNEGRDPFGDPTADRPWNRYTDPMDKAFARVDALFEFCEKLNIEYFCFHDRDIAPEGKTLRETNKILDKVVERIKERMKDSNVKLLWGTANLFSHPRYMHGAATTCSADVFAYAAAQVKKALEITKELGGEGYVFWGGREGYETLLNTDLGFELENLARFLRMAVDYAKRIGFTGQFLIEPKPKEPTKHQYDFDVATAYAFLKSHGLDEYFKFNIEANHATLAGHTFQHELRMARILGKLGSIDANQGDLLLGWDTDQFPTNVYDTTLAMYEVIKAGGFTKGGLNFDAKVRRASYKVEDLFIGHIAGMDTFALGFKVAYKLVKDGVLDKFIEEKYRSFREGIGRDIVEGKVDFEKLEEYIIDKETIELPSGKQEYLESLINSYIVKTILELR,soluble
8,EFIHGVYVDTSLHRNFVNLQQASLMAEGGVTGGISLLRNLRTSGNDQGLQQLLADPVQFEDEKGRVSITIEEEDGKLNLNAVTLPNGDEHVFYGPAERRLLTALKLPTALHDSLADWLDANDEPRPDGGESAYYQSLSAPYAPRNAPFATFGELGLVRGVEPAVLERLRPFATVFVDGGAINVNTAPLQVLMALDEGISEGIARDIMQRRRIKPFKSVGELSEIPGMETIAGKLSGFAGARGSTYRLVSRAAVGDVTRLVEAVVNLDGTQPRYLY,not soluble
9,MGSSHHHHHHGKTIFVIVPTNEEQVAFLEALAKQDELNFDWQNPPTEPGQPVVILIPSDMVEWFLEMLKAKGIPFTVYVEEGGSENLYFQGGGGGGTCMMGLEIRPKVVSFAQEKALALRQENAASLTQHYRNVWFEQMNVMKFGSNCFTKGQLSRLFFCYPDPHWKRKNIRRRIISPGLVQEYAYWLRHGGLVYTVSDVAELEEWMVQCLDDSPLFRRLAEAELCTPEHKQVLEIVTGASEDAQRTARKGLQKHFAVHMRI,not soluble
10,MSLNNQDISIGKLSRLKIWITDNHLSDDQWSNTKKFIIIKITTEDGIEGWGEAFSINFREKGIAIIIKELFREISNIPNLSIKSFYNKISLLSDGHRGLDFSSATSAIEIALWDISGKLKNLPLNSLLTKSPKPNVPIYATCWSDLKKDTNDYLRQIEKFYGKKYGGIKIYPMLDSLSISIQFVEKVREIVGDELPLMLDLAVPEDLDQTKSFLKEVSSFNPYWIEEPVDGENISLLTEIKNTFNMKVVTGEKQSGLVHFRELISRNAADIFNPDISGMGGLIDIIEISNEASNNGIFISPHCWNSMSVSASAMLHVCSSIPNSEKAEIFPDYINFSKKFCELPFDIIDNKAHINKSAGLGIVIHEDILSELSIYSLDEKSNDEGHHHHHH,soluble
11,MSEKVVFSQLSRKFIDENDATPAEAQQVVYYSLAIGHHLGVIDCLEAALTCPWDEYLAWIATLEAGSEARRKMEGVPKYGEIVIDINHVPMLANAFDKARAAQTSQQKEWSTMLLSMLHDIHQENAIYLMVRRLRD,not soluble
12,MMSSQAWTDVENDLIVADYFAMLAEDVAGHPYNKAEHRRQLLPRLNDRSDGSVEFKHQNISAVLKGLGEVWITGYKPAFNFQTSLVDAVARWLVINPGWTHRTLSSRPVDGMAEAAQLWVGPAPTLTNQPSPDELEQMLHIAKKFDVAARDGRNRALGKAGEERVLKHERNTLTAAGREDLAQQIRWVSEEEGDGAGYDIASFDADGRQRLIEVKTTNGWERTPFHISRNELAVADERREEWCLFRLWNFARTPKAFELRPPLDAYVSLTATSFQASIHLEHHHHHH,not soluble
13,MLTLKGKYNEAKVFTDNVDDNTIGQIITLCNQPFAKDSKIRIMPDTHGGKGCVIGTTMTIQDKIVPNLVGVDIGCGLYVVKLKPGKLKMDFDKLDKVIRERVPSGSKTHDKPVDEFDLEGIVAPIHHGWVARSIGTLGGGNHFIEVNQGSDGIYLVIHSGSRVLGKEIAEYHQEVAYKRLDILRKELKLDATAAKKRGNLEMANNLNGEREQVKLDYDLSYVTGVDLKNYLNDMEIAQKFAARNRYVMAQIILKAMKWDKAVVSAFDCVHNYIDIEHNMLRKGATSAQLGEQIIVPLNMREGSILATGKGNADWNYSAPHGAGRMLSRSKAKAQISLESYQAAMKDVWTTSVSKKTIDEAPKAYKSAKQLLADVEDTMEIQEIIKPLYNFKALEHHHHHH,soluble
14,MRGSHHHHHHTDPHASSVPLEWPLSSQSGSYELRIEVQPKPHHRAHYETEGSRGAVKAPTGGHPVVQLHGYMENKPLGLQIFIGTADERILKPHAFYQVHRITGKTVTTTSYEKIVGNTKVLEIPLEPKNNMRATIDCAGILKLRNADIELRKGETDIGRKNTRVRLVFRVHIPESSGRIVSLQTASNPIECSQRSAHELPMVERQDTDSCLVYGGQQMILTGQNFTSESKVVFTEKTTDGQQIWEMEATVDKDKSQPNMLFVEIPEYRNKHIRTPVKVNFYVINGKRKRSQPQHFTYHPV,soluble
15,MSLGSGVAEPEFPVHGDDRAAAFFDLDNTVMQGAAIFHFGRGLYKRKFFETRDLARFAWQQAWFRLAGFEDPEHMQDARDSALSIVKGHRVSELKSIGEEIYDEYMAERIWPGTRALAQAHLDAGQKVWLVTAAPVEIAQVIARRLGLTGALGTVAESIGGVYTGKLVGEPLHGPAKAEAVRALATAEALDLSRCAAYGDSHNDIPMLSLVGHPYAINPDSKLRKHARELEWRLRDYRTGRKAAKEGHHHHHH,soluble
16,MGSDKIHHHHHHETNNLKTKEDMYKYFGTSKSMLTHVYSYMPQGYQLFATSGGIFTEDRYSMRDCASDDGEFGAYADNIQNTNNGNWSPIKTYDDSWTLYRGIRAANSFIAEIAQVDFTRYEHDGQYTNWMKQLKYFPYEARVLRAHYFFELARRYGDIAMPLEVLTEEEANTIGKTPFSEVISFIVSECDDAANNLPDSYVNEPGAEIGRVTKGFAMAVKSKALLYAASKLHNPSMDTELWKKSAKAAIDIINTGLYSLDPQESANNLDSKEVVLMRINGDDSDFEMFNLPLRMTAGTRTSSLIPYSNYPSQNLVDAFETVNGYKVTLENTGWVCEDPAFDPQSPYENRDKRFYRAILANGMSFKDYTIETFKGGADDGIVSQGGSPTGYFLRKYIQEATSFEPGKEAVSKHHWVIYRYAETLLTYAESMVNAFNDVNYTDETYKYSALWAINEVRKNADMPLIPSMGKDEFMERLYNEWRVEFAFEDHRFWDVRRWKIADTTQRELYGVKIEKQADGTFNFYKNLYETRNWRDCMYLYPIPQSELYKNTNLNPQNTGW,not soluble
17,MAHHHHHHMVVPVMNMTREPAVDSPENSRKISLAGYPEVAGLFCVTVFKSTLDLEVRDCCGLLTLDGVGKCVELKKFSISNCGMLTNISDLKDCVNLEMLTLSGCKTLRNLTPLKGHRTLSCITISHCERMMELDLEGATNLMQLNISDCEELKDVHVSRCTRLEVIDIHDCVKLEKLHGLTYLRELKTLILAGNRELSAVEGINELINRVEKLSLKNCEKLEDLKFLDFCNFLKEVVVAGSNVTEEKKQELRGKGVRIVNEVKVADG,not soluble
18,MGSDKIHHHHHHMERYNTMSGKKTESSDNIVLYPGLVKRLIEKGMEALKEKDAKKALTMFEQAEQYDAEPSQILFGKALCYVELGKLDDAVLLTDQMLRNDIGNYYDILQIHLSLLVQLGRYDEVVEMLDVVLAEDRLPAKHAESFYQLLHFSRQMVEDSPTYIKEPLSEELDLKETYDDINERDSLEQWHFLQQMRKHNNPADIRTLLSFVESESNDPALRSYALHMLTMHKVEKRVRIRKFDQEAEVIPVELNADEQQRFGNAVVEQLEARLAVENPSLFKMAEQLWWQFLYALYPFTPKPEQKDLWAGAVHVAVHESNGLPFDEEEIAGMYNCRVQQMLEKGEEIHFVETETFQGISGHSFR,not soluble
19,MFNTTPINIDKWLKENEGLLKPPVNNYCLHKGGFTVMIVGGPNERTGYHINPTPEWFYQKKGSMLLKVVDETDAEPKFIDIIINEGDSYLLPGNVPHSPVRFADTVGIVVEQDRPGGENDKIRWYCSHCRQVVHESELQMLDLGTQVKEAILDFENDVEKRTCFHCKTLNYARPQSN,soluble
20,MSLTQRITMEDIARQSGVSLATVSLVLRDKPGINDETRRRVLDIARDLGYRKRLNHEKLVSQSLHNAGVIVKASIGDDSPLTNPFYAPIVAGIEAACRKMHINLMYATVPVDMDNHPQEMPRLLSEDHLDGVLLVGAFADATITKLLQREGIPAVLVDGYSHEHVYDSVVSDNFRAAYEAVSYLISYGHRHIGLIGTTKEAYPSIAERRKGYIQALTDHGIHDQYFGDCLLTMHEGSDTSSILLQRHPQITALFCANDMMAIGATQAARALHRQIPQDLSIIGFDNIDLAQHVAPALTTMHVDKVSMGRFAVQLLANRAEYPDQAPATVSLRPRLLERQSVQREGHHHHHH,soluble
21,MMQPLYLVGPRGCGKTTIGMALAQATGFRFADTDRWLQSHVQMSVADIVEKEGWGGFRARETAALEAVSAPSTVVATGGGIILTEYNRRYMHRVGVVIYLCAPVSTLVNRLEAEPEADLRPTLTGKPLSEEVREVLEQRDALYRETAHYIIDATKAPAQVVSEIIAALPPSTQRLQGDVYT,not soluble
